According to patent publication US20030229005A1:

Assays:
Assay in all cases: cell-based or functional assay
gelatinase B = gelatinase B (UniProt P14780)
collagenase 1 = collagenase 1 (UniProt P03956)
stromelysin 1 = stromelysin 1 (UniProt P08254)
stromelysin 1, sequence (P08254 100-477 limits assumed): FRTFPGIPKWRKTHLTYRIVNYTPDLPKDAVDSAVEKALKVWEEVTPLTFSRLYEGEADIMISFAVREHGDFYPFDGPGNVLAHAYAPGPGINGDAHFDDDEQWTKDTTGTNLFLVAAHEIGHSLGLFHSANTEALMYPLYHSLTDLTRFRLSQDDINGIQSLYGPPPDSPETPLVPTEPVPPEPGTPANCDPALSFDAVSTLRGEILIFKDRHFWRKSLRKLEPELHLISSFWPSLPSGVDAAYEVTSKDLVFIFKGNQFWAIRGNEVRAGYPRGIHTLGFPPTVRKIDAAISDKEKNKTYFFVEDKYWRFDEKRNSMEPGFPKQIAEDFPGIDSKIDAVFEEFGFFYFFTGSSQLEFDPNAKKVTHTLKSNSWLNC

gelatinase B, sequence (P14780 107-707 limits assumed): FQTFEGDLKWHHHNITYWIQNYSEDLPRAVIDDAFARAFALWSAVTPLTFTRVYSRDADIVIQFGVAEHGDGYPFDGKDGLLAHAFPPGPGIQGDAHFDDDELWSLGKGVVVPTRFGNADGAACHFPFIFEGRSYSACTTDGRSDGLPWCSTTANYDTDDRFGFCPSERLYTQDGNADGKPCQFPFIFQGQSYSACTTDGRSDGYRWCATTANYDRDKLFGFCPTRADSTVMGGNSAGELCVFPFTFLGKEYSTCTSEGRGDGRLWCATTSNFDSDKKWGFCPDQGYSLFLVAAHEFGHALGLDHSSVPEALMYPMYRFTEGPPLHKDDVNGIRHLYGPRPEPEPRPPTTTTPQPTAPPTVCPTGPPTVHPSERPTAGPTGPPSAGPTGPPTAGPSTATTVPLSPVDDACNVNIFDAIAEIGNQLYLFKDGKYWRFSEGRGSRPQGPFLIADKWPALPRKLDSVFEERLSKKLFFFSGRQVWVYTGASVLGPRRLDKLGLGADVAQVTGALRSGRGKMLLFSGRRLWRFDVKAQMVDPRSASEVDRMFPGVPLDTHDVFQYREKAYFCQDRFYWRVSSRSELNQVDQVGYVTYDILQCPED
collagenase 1, sequence (P03956 100-469 limits assumed): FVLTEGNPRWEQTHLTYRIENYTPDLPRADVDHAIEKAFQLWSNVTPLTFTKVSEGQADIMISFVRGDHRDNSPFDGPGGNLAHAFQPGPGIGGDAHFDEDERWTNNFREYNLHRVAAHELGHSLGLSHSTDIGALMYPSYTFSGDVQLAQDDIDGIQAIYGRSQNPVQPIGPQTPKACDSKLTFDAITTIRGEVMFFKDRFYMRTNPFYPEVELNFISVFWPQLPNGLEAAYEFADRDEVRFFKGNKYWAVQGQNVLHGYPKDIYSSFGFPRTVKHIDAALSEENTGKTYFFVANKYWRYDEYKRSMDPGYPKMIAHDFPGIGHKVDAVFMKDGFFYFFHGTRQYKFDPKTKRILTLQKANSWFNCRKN

Substance “bovine type II collagen (from UniProt P02459 182-1241)” has an Average Percent Inhibition, 2.10-3.10 h, TypeIICOL 44 ug/ul (gelatinase B) of 87%, an Average Percent Inhibition, 2.10-3.10 h, TypeIICOL .18 ug/ul (gelatinase B) of 11% and an Average Percent Inhibition, 2.10-3.10 h, TypeIICOL .55 ug/ul (gelatinase B) of 12%. The Average Percent Inhibition, 3.10-4.10 h, TypeIICOL 1.6 ug/ul (gelatinase B) was 15%, the Average Percent Inhibition, 3.10-4.10 h, TypeIICOL 4.9 ug/ul (gelatinase B) was 41% and the Average Percent Inhibition, 3.10-4.10 h, TypeIICOL 15 ug/ul (gelatinase B) was 69%. For the same substance, the Average Percent Inhibition, 3.10-4.10 h, TypeIICOL 44 ug/ul (gelatinase B) was 87%, the Average Percent Inhibition, 3.10-4.10 h, TypeIICOL .18 ug/ul (gelatinase B) was 9% and the Average Percent Inhibition, 3.10-4.10 h, TypeIICOL .55 ug/ul (gelatinase B) was 10%. It also gave an Average Percent Inhibition, 4.10-5.10 h, TypeIICOL 1.6 ug/ul (gelatinase B) of 11%, an Average Percent Inhibition, 4.10-5.10 h, TypeIICOL 4.9 ug/ul (gelatinase B) of 35% and an Average Percent Inhibition, 4.10-5.10 h, TypeIICOL 15 ug/ul (gelatinase B) of 64%. For the same substance, the Average Percent Inhibition, 4.10-5.10 h, TypeIICOL 44 ug/ul (gelatinase B) was 85%, the Average Percent Inhibition, 4.10-5.10 h, TypeIICOL .18 ug/ul (gelatinase B) was 7% and the Average Percent Inhibition, 4.10-5.10 h, TypeIICOL .55 ug/ul (gelatinase B) was 8%. For the same substance, the Average Percent Inhibition, 5.10-6.10 h, TypeIICOL 1.6 ug/ul (gelatinase B) was 7%, the Average Percent Inhibition, 5.10-6.10 h, TypeIICOL 4.9 ug/ul (gelatinase B) was 30% and the Average Percent Inhibition, 5.10-6.10 h, TypeIICOL 15 ug/ul (gelatinase B) was 59%. For the same substance, the Average Percent Inhibition, 5.10-6.10 h, TypeIICOL 44 ug/ul (gelatinase B) was 83%, the Average Percent Inhibition, 5.10-6.10 h, TypeIICOL .18 ug/ul (gelatinase B) was 5% and the Average Percent Inhibition, 5.10-6.10 h, TypeIICOL .55 ug/ul (gelatinase B) was 6%. The Average Percent Inhibition from 1.1 to 6.6 Hours, Type II Collagen 0.18 ug/ml (collagenase 1) was 0%, the Average Percent Inhibition from 1.1 to 6.6 Hours, Type II Collagen 0.54 ug/ml (collagenase 1) was 3% and the Average Percent Inhibition from 1.1 to 6.6 Hours, Type II Collagen 1.63 ug/ml (collagenase 1) was 0%. The Average Percent Inhibition from 1.1 to 6.6 Hours, Type II Collagen 4.89 ug/ml (collagenase 1) was 2%, the Average Percent Inhibition from 1.1 to 6.6 Hours, Type II Collagen 14.67 ug/ml (collagenase 1) was 10% and the Average Percent Inhibition from 1.1 to 6.6 Hours, Type II Collagen 44.00 ug/ml (collagenase 1) was 15%. The Average Percent Inhibition, 0.10-1.10 h, TypeIICOL 1.6 ug/ul (collagenase 1) was 19%, the Average Percent Inhibition, 0.10-1.10 h, TypeIICOL 4.9 ug/ul (collagenase 1) was 37% and the Average Percent Inhibition, 0.10-1.10 h, TypeIICOL 15 ug/ul (collagenase 1) was 44%. It also gave an Average Percent Inhibition, 0.10-1.10 h, TypeIICOL 44 ug/ul (collagenase 1) of 50%, an Average Percent Inhibition, 0.10-1.10 h, TypeIICOL .18 ug/ul (collagenase 1) of 17% and an Average Percent Inhibition, 0.10-1.10 h, TypeIICOL .55 ug/ul (collagenase 1) of 15%. The Average Percent Inhibition, 1.10-2.10 h, TypeIICOL 1.6 ug/ul (collagenase 1) was 6%, the Average Percent Inhibition, 1.10-2.10 h, TypeIICOL 4.9 ug/ul (collagenase 1) was 13% and the Average Percent Inhibition, 1.10-2.10 h, TypeIICOL 15 ug/ul (collagenase 1) was 21%. It also gave an Average Percent Inhibition, 1.10-2.10 h, TypeIICOL 44 ug/ul (collagenase 1) of 29%, an Average Percent Inhibition, 1.10-2.10 h, TypeIICOL .18 ug/ul (collagenase 1) of 3% and an Average Percent Inhibition, 1.10-2.10 h, TypeIICOL .55 ug/ul (collagenase 1) of 6%. For the same substance, the Average Percent Inhibition, 2.10-3.10 h, TypeIICOL 1.6 ug/ul (collagenase 1) was 0%, the Average Percent Inhibition, 2.10-3.10 h, TypeIICOL 4.9 ug/ul (collagenase 1) was 3% and the Average Percent Inhibition, 2.10-3.10 h, TypeIICOL 15 ug/ul (collagenase 1) was 12%. For the same substance, the Average Percent Inhibition, 2.10-3.10 h, TypeIICOL 44 ug/ul (collagenase 1) was 18%, the Average Percent Inhibition, 2.10-3.10 h, TypeIICOL .18 ug/ul (collagenase 1) was 0% and the Average Percent Inhibition, 2.10-3.10 h, TypeIICOL .55 ug/ul (collagenase 1) was 3%. The Average Percent Inhibition, 3.10-4.10 h, TypeIICOL 1.6 ug/ul (collagenase 1) was -2%, the Average Percent Inhibition, 3.10-4.10 h, TypeIICOL 4.9 ug/ul (collagenase 1) was 0% and the Average Percent Inhibition, 3.10-4.10 h, TypeIICOL 15 ug/ul (collagenase 1) was 8%. For the same substance, the Average Percent Inhibition, 3.10-4.10 h, TypeIICOL 44 ug/ul (collagenase 1) was 12%, the Average Percent Inhibition, 3.10-4.10 h, TypeIICOL .18 ug/ul (collagenase 1) was -1% and the Average Percent Inhibition, 3.10-4.10 h, TypeIICOL .55 ug/ul (collagenase 1) was 2%. The Average Percent Inhibition, 4.10-5.10 h, TypeIICOL 1.6 ug/ul (collagenase 1) was -3%, the Average Percent Inhibition, 4.10-5.10 h, TypeIICOL 4.9 ug/ul (collagenase 1) was -2% and the Average Percent Inhibition, 4.10-5.10 h, TypeIICOL 15 ug/ul (collagenase 1) was 6%. The Average Percent Inhibition, 4.10-5.10 h, TypeIICOL 44 ug/ul (collagenase 1) was 9%, the Average Percent Inhibition, 4.10-5.10 h, TypeIICOL .18 ug/ul (collagenase 1) was -1% and the Average Percent Inhibition, 4.10-5.10 h, TypeIICOL .55 ug/ul (collagenase 1) was 1%. The Average Percent Inhibition, 5.10-6.10 h, TypeIICOL 1.6 ug/ul (collagenase 1) was -4%, the Average Percent Inhibition, 5.10-6.10 h, TypeIICOL 4.9 ug/ul (collagenase 1) was -4% and the Average Percent Inhibition, 5.10-6.10 h, TypeIICOL 15 ug/ul (collagenase 1) was 4%. For the same substance, the Average Percent Inhibition, 5.10-6.10 h, TypeIICOL 44 ug/ul (collagenase 1) was 7%, the Average Percent Inhibition, 5.10-6.10 h, TypeIICOL .18 ug/ul (collagenase 1) was -1% and the Average Percent Inhibition, 5.10-6.10 h, TypeIICOL .55 ug/ul (collagenase 1) was 1%. The Average Percent Inhibition from 1.1 to 6.6 Hours, Type II Collagen 0.18 ug/ml (stromelysin 1) was 15%, the Average Percent Inhibition from 1.1 to 6.6 Hours, Type II Collagen 0.54 ug/ml (stromelysin 1) was 13% and the Average Percent Inhibition from 1.1 to 6.6 Hours, Type II Collagen 1.63 ug/ml (stromelysin 1) was 19%. It also gave an Average Percent Inhibition from 1.1 to 6.6 Hours, Type II Collagen 4.89 ug/ml (stromelysin 1) of 12%, an Average Percent Inhibition from 1.1 to 6.6 Hours, Type II Collagen 14.67 ug/ml (stromelysin 1) of 18% and an Average Percent Inhibition from 1.1 to 6.6 Hours, Type II Collagen 44.00 ug/ml (stromelysin 1) of 19%. For the same substance, the Average Percent Inhibition, 0.10-1.10 h, TypeIICOL 1.6 ug/ul (stromelysin 1) was -10%, the Average Percent Inhibition, 0.10-1.10 h, TypeIICOL 4.9 ug/ul (stromelysin 1) was 50% and the Average Percent Inhibition, 0.10-1.10 h, TypeIICOL 15 ug/ul (stromelysin 1) was 57%. The Average Percent Inhibition, 0.10-1.10 h, TypeIICOL 44 ug/ul (stromelysin 1) was 62%, the Average Percent Inhibition, 0.10-1.10 h, TypeIICOL .18 ug/ul (stromelysin 1) was 22% and the Average Percent Inhibition, 0.10-1.10 h, TypeIICOL .55 ug/ul (stromelysin 1) was 43%. For the same substance, the Average Percent Inhibition, 1.10-2.10 h, TypeIICOL 1.6 ug/ul (stromelysin 1) was 24%, the Average Percent Inhibition, 1.10-2.10 h, TypeIICOL 4.9 ug/ul (stromelysin 1) was 23% and the Average Percent Inhibition, 1.10-2.10 h, TypeIICOL 15 ug/ul (stromelysin 1) was 28%. It also gave an Average Percent Inhibition, 1.10-2.10 h, TypeIICOL 44 ug/ul (stromelysin 1) of 32%, an Average Percent Inhibition, 1.10-2.10 h, TypeIICOL .18 ug/ul (stromelysin 1) of 22% and an Average Percent Inhibition, 1.10-2.10 h, TypeIICOL .55 ug/ul (stromelysin 1) of 26%. For the same substance, the Average Percent Inhibition, 2.10-3.10 h, TypeIICOL 1.6 ug/ul (stromelysin 1) was 22%, the Average Percent Inhibition, 2.10-3.10 h, TypeIICOL 4.9 ug/ul (stromelysin 1) was 11% and the Average Percent Inhibition, 2.10-3.10 h, TypeIICOL 15 ug/ul (stromelysin 1) was 18%. The Average Percent Inhibition, 2.10-3.10 h, TypeIICOL 44 ug/ul (stromelysin 1) was 18%, the Average Percent Inhibition, 2.10-3.10 h, TypeIICOL .18 ug/ul (stromelysin 1) was 15% and the Average Percent Inhibition, 2.10-3.10 h, TypeIICOL .55 ug/ul (stromelysin 1) was 14%. For the same substance, the Average Percent Inhibition, 3.10-4.10 h, TypeIICOL 1.6 ug/ul (stromelysin 1) was 18%, the Average Percent Inhibition, 3.10-4.10 h, TypeIICOL 4.9 ug/ul (stromelysin 1) was 8% and the Average Percent Inhibition, 3.10-4.10 h, TypeIICOL 15 ug/ul (stromelysin 1) was 14%. It also gave an Average Percent Inhibition, 3.10-4.10 h, TypeIICOL 44 ug/ul (stromelysin 1) of 14%, an Average Percent Inhibition, 3.10-4.10 h, TypeIICOL .18 ug/ul (stromelysin 1) of 12% and an Average Percent Inhibition, 3.10-4.10 h, TypeIICOL .55 ug/ul (stromelysin 1) of 10%. The Average Percent Inhibition, 4.10-5.10 h, TypeIICOL 1.6 ug/ul (stromelysin 1) was 17%, the Average Percent Inhibition, 4.10-5.10 h, TypeIICOL 4.9 ug/ul (stromelysin 1) was 8% and the Average Percent Inhibition, 4.10-5.10 h, TypeIICOL 15 ug/ul (stromelysin 1) was 13%. For the same substance, the Average Percent Inhibition, 4.10-5.10 h, TypeIICOL 44 ug/ul (stromelysin 1) was 14%, the Average Percent Inhibition, 4.10-5.10 h, TypeIICOL .18 ug/ul (stromelysin 1) was 12% and the Average Percent Inhibition, 4.10-5.10 h, TypeIICOL .55 ug/ul (stromelysin 1) was 8%. The Average Percent Inhibition, 5.10-6.10 h, TypeIICOL 1.6 ug/ul (stromelysin 1) was 16%, the Average Percent Inhibition, 5.10-6.10 h, TypeIICOL 4.9 ug/ul (stromelysin 1) was 8% and the Average Percent Inhibition, 5.10-6.10 h, TypeIICOL 15 ug/ul (stromelysin 1) was 14%. For the same substance, the Average Percent Inhibition, 5.10-6.10 h, TypeIICOL 44 ug/ul (stromelysin 1) was 14%, the Average Percent Inhibition, 5.10-6.10 h, TypeIICOL .18 ug/ul (stromelysin 1) was 12% and the Average Percent Inhibition, 5.10-6.10 h, TypeIICOL .55 ug/ul (stromelysin 1) was 8%.
